We go through 1 molecule from patent US20230143031A1 (published 2023).

The assay deals with T1, NY-ESO antigen (NY-ESO-1) peptide on HLA-A*02:01 (human).
T1 peptide: SLLMWITQC
The experiment in a line: multimer staining.

B1: anti-NY-ESO TCR (TCR, V domains shown)
Valpha: KQEVTQIPAALSVPEGENLVLNCSFTDSAIYNLQWFRQDPGKGLTSLLLIQSSQREQTSGRLNASLDKSSGRSTLYIAASQPGDSATYLCAGDNNAGNMLTFGGGTRLMVKP
Vbeta: DAMVIQNPRYQVTQFGKPVTLSCSQTLNHNVMYWYQQKSSQAPKLLFHYYDKDFNNEADTPDNFQSRRPNTSFCFLDIRSPGLGDAAMYLCATSVTDGTALTGELFFGEGSRLTVL
On to B1, for which the binding result was “recognises”.
